Measured values: the DeepSol protein solubility set

Assay: soluble on expression in E. coli; label from the status in PepcDB or PDB records

Sequence | soluble on expression in E. coli
MGLRRGWTPPWPLDLGIVLGPLRRGPGDPTFRTTPDGAVWRASRTPAGPGTLRVALRGGAVEAEAWGPGAEWLLHQLPEMLGSADDPDAFEPRHRLVAVTRHRRPGLRLTRTGLVLESLIPSVLEQKVTADEAYRAWRLLVRKFGEPAPGPVEGRMHVMPEPRTWALIPSWEWHRAGVDNKRASTILRAVRVAARLEQAMGMEPAQAQARLEVVSGIGPWTSAETVQRSHGAADSVTVGDLHLPRIVGYALAGDRDADDAAMLELLAPYAGQRHRAARLILLSGRTPPAAALEHHHHHH | not soluble
MGLSGFHSFLCCRSRDYHLVINTLIHTVMTMDITKSVAFTGHRSERILQVRMLYLYLDIVSQVKRLYSLGYRYFLSGMAEGFDLLAAQAVTALKAEYTDIRLIAVVPFSRQSNRYRPENKSLYDRIMKTADETVILREDYRKGCFHHRNDYLIDNSEIVLAYWDKQPYGGTYYTVGKARMVNRIIINLYK | not soluble
MGLYDKYARLAGERLQFSDNGLTPFGTCIDEVYSATEGRIGNKKVILAGTNNYLGLTFNHDAISEGQAALAAQGTGTTGSRMANGSYAPHLALEKEIAEFFNRPTAIVFQPVIPLI | not soluble
MGMVGFRRSRHRRLGAGCGRAGGCMSGVEVITFGCRLNTYESEVMRAEAEKAGLNNAVLVNTCAVTGEAVRQARQAIRRARRDNPHARIIVTGCAAQTEKQTFADMPEVDAVLGNEEKLKSASYRALPDFGVSAEEKLRVNDIMSIKATAPQMVKHIDGHVRAFIQVQNGCDHRCTFCIIPYGRGNSRSVPMGAVVDQARRLTESGYCEIVLTGVDATSYGADLPGEPSLGYLAKTLLKQVPDIIRLRLSSIDSIEADHHLMDLIADEPRFMPHLHLSLQHGDDMILKRMKRRHLRADAIRFCNEVRSLRPDIAFGADMIAGFPTETEEMLENAATLAEECGISSLHVFPYSPREGTPAVRMPQLDRALVKERAGRLRARGEALKQAHLQNMVGSVQTVLVENSGFAHTDNFTLVAAPDLAPRTLAQVAITGHNGKHLNMKLLAADAALEHHHHHH | not soluble
MGNCWFKGNPYFNRVSSNATKSESPKMQSPSERKEKDDSMLPSNAKEVEELRRESARNPLIAFTFEELKRITKNFRQDSLLGGGGFGRVYKGYITSDLREGLTIEEPLRVAVKVHDGDNSFQGHREWLAEVIFLGQLSHPNLVKLIGYCCEDDHRVLVYEFMPLGSVESHLFSRVMVPLPWFTRMKIALGAAKGLAFLHEAEKPVIYRDFKTSNILLDEEYNAKLSDFGLAKDGPVGDKSHVSTRIMGTYGYAAPEYIMTGHLTAMSDVYSYGVVLLELLTGRKSLDKSRPVREQTLADWAFPMLIQKKKVLGIVDPRLAEDYPVKAVQKTAMLAYHCLNRNPKARPLMRDIVATLEPLQQMEEDPSISLVSGTEV | soluble
MGNRLKAARSPYLLAHAEDPVDWYPFGEEAFRKAQAEDKPIFLSVGYASCHWCHVMHRESFQDEEVARLLNAHFVPVKVDREERPDVDAAYMRALVSLTGQGGWPMSLFLTPEGKPFFGGTYFPKEDRMGLPGFKRVLVAVAEAWAGKREAILEEAERLTRALWKSLSPPPGPLPEGAEEEALDHLERAFDPEWGGFLPAPKFPQGPLLLYLLARAWEGEERAARLLRPTLRAMALGGVYDQVGGGFHRYSVDRFWRLPHFEKMLYDNALLARVYLGAYKLFGEDLFLRVARETLDWLLSMQRREGGFHTALDAESEGEEGRYYTWTEAELREALGEDFPLARRYFALGEDLGERSVLTAWGEAEARKALGEGFFAWREGVRAKLQGARRRRMPPALDDKVLADWSALAVRALAEAGRLFGEERYLEAAKRGARFLLAHMYREGLLRHTWRGSLGEEAYLSDQAFAALAFLELYAATGEWPYLDWAQRLAEAGWRLFREGPSLPLPAKEVEEGALPSGESALAEALVRLGAVFGGDYRERAEEVLAEKARWLARYPHALPGALLAKALWERGTELALPLPSPLLEAARGAFLPLTQLVLGPAGALPALEGREAGKAYVCRRGVCLLPVDRWEEVEARVRGDD | soluble
MGNSHSVTTALHSVLKQREIKVSTRTLETFIKEIERISPWYACSGSLTLSSWEKLREDLAKEQQNGKLKAGTMPLWKLVRSCLEDERCRPAIITGQAILEEAQDSMAETEWCERLGAPKKGKCAQSKKPFQRP | soluble
